The values that follow come from publication PMC10244618.

Sequences and labels used below:
B1: NF2 (merlin) isoform 7, human, full length (507 aa, lacks exons 2-3 = isoform-1 residues 39-121; exon-16 C-terminus), P35240-4 (parent)
chain: MAGAIASRMSFSSLKRKQPKTFTVRIVTMDAEMEFNCEVKKQILDEKIYCPPEASVLLASYAVQAKYGDYDPSVHKRGFLAQEELLPKRVINLYQMTPEMWEERITAWYAEHRGRARDEAEMEYLKIAQDLEMYGVNYFAIRNKKGTELLLGVDALGLHIYDPENRLTPKISFPWNEIRNISYSDKEFTIKPLDKKIDVFKFNSSKLRVNKLILQLCIGNHDLFMRRRKADSLEVQQMKAQAREEKARKQMERQRLAREKQMREEAERTRDELERRLLQMKEEATMANEALMRSEETADLLAEKAQITEEEAKLLAQKAAEAEQEMQRIKATAIRTEEEKRLMEQKVLEAEVLALKMAEESERRAKEADQLKQDLQEAREAERRAKQKLLEIATKPTYPPMNPIPAPLPPDIPSFNLIGDSLSFDFKDTDMKRLSMEIEKEKVEYMEKSKHLQEQLNELKTEIEALKLKERETALDILHNENSDRGGSSKHNTIKKPQAQGRRPICI

“And” between values parts separate entries of the source, which are not always exact repeats. Equal values may be shown once.

The variants in the first assay derive from B1. In words: reverse yeast two-hybrid deep mutational scan (rY2H-seq): NF2 isoform 7 mutant library as bait mated with wild-type prey strains; selection on medium lacking adenine for non-interacting pairs; NextSeq paired-end sequencing; enrichment vs …. As to conditions: with NF2 C-terminal domain (wild type; homomeric NF2-NF2 interaction), P35240; yeast diploids after mating (RBait_S3 x RPrey_S3), 30 °C, selection for reporter genes on NB agar; human ABL2 co-expressed as the kinase-dead K35M mutant …; HIGHER = WEAKER BINDING (the opposite of display enrichments): higher = stronger loss of interaction: reverse Y2H selects yeast in which bait and prey do NOT interact (growth without adenine), so a …; hits-only table; partner unresolved; scale: rY2H score; numbering: uniprot, sequence starts at 1.
As for L315R, the enrichment turned out to be 1.62. As to T297L, the enrichment was 3.13. For M238A, the enrichment was 4.02.

With E132L, the enrichment is 1.84. For E132K, the enrichment worked out at 5.61.

As to Q236A, the enrichment came to 2.27. Consider L167K, for which the enrichment worked out at 1.57. The same measure, in the same setting: in the case of A140G it was 1.75; in that of L301A, 1.81; in that of T394K, 1.65. On to T394R, for which the enrichment came to 3.98.

P413K: the enrichment is 1.53. Still for that read-out and setting: the value for Q376A was 5.78. As for H479A, the enrichment was 4.46. Take P399S: the enrichment turned out to be 3.98. Turning to A287E, the enrichment is 3.57 and 6.74.

In the case of R363L, the enrichment stood at 2.55. Turning to Q261E, the enrichment was 1.7. With K395S, the enrichment was determined as 2.15. Turning to A302K, the enrichment is 1.89. L417T: the enrichment was 2.32. As for E321A, the enrichment came out at 1.62.

Take A312K: the enrichment came to 2.34.

With E377L, the enrichment was 1.63. On the same count and under the same terms, in the case of D118K it was 4.21. On to Q373K, for which the enrichment is 1.92. Still for that read-out and setting: in the case of K126L it was 1.8 and 2.78.

With R248L, the enrichment is 2.23. As for L158G, the enrichment came out at 1.55.

For S423L, the enrichment was determined as 2.58. As for L466C, the enrichment was determined as 1.55. The same measure, in the same setting: the value for E310L was 1.51. As to Y70H, the enrichment is 1.43. As to N288A, the enrichment was 1.84.

K260A: the enrichment amounted to 2.49. On to E83K, for which the enrichment was found to be 18.2. As for R293K, the enrichment stood at 7.18.

As to D411L, the enrichment was found to be 3.15. On the same count and under the same terms, the value for L291E was 2.16; that for N137Q was 1.42; that for A406L was 10. As to Q64M, the enrichment was 5.81.

In the case of L408C, the enrichment was 1.37. Turning to A358E, the enrichment was 2.37. Turning to A358K, the enrichment worked out at 3.8. A378L: the enrichment worked out at 2.15. The same measure, in the same setting: in the case of S73P it was 2.96. M133E: the enrichment is 2.45. Consider L348A, for which the enrichment amounted to 4.71.

Regarding P19E, the enrichment is 3.9.

The same assay, now with this note: with KDM1A (lysine-specific histone demethylase 1A; the table's label AOF2 is a gene synonym of KDM1A), O60341; yeast diploids after mating (RBait_S3 x RPrey_S3), 30 °C, selection for reporter genes on NB agar; human ABL2 co-expressed as the kinase-dead K35M mutant …; HIGHER = WEAKER BINDING (the opposite of display enrichments): higher = stronger loss of interaction: reverse Y2H selects yeast in which bait and prey do NOT interact (growth without adenine), so a …; hits-only table; scale: rY2H score; numbering: uniprot, sequence starts at 1.
Turning to G501C, the enrichment is 1.59. Turning to E472A, the enrichment came out at 3.64. As for R471A, the enrichment was found to be 3.18. In the case of K460L, the enrichment was found to be 4.85. S423E: the enrichment was determined as 9.11. For the variant N492E, the enrichment worked out at 1.69. With P504R, the enrichment came to 2.

Staying with this assay, now noted: with PIK3R3 (phosphatidylinositol 3-kinase regulatory subunit gamma), Q92569; yeast diploids after mating (RBait_S3 x RPrey_S3), 30 °C, selection for reporter genes on NB agar; human tyrosine kinase ABL2 co-expressed as the active kinase …; HIGHER = WEAKER BINDING (the opposite of display enrichments): higher = stronger loss of interaction: reverse Y2H selects yeast in which bait and prey do NOT interact (growth without adenine), so a …; hits-only table; scale: rY2H score; numbering: uniprot, sequence starts at 1.
Turning to G501C, the enrichment turned out to be 1.45. K191S: the enrichment worked out at 2.28. The same measure, in the same setting: the value for T297L was 1.67.

On to K388E, for which the enrichment came to 3.32. For N176M, the enrichment is 1.43. On to A140V, for which the enrichment was found to be 2.13. With T394A, the enrichment came out at 2.14. The same measure, in the same setting: in the case of T394S it was 1.98; in that of E234K, 1.73.

Turning to G146R, the enrichment came to 1.52. For A287E, the enrichment worked out at 2.8. With M401K, the enrichment came to 2.17. Still for that read-out and setting: the value for M401E was 2.14. For M401Q, the enrichment is 2.91. For K460L, the enrichment amounted to 10.6. Consider V24A, for which the enrichment is 2.39. For the variant M280I, the enrichment was determined as 2.64. Same read-out and setting: the value for V352K was 2.67; that for E321L was 3.49; that for F173T was 11. Take F173P: the enrichment worked out at 13. Still for that read-out and setting: the value for A312K was 2. As to S294V, the enrichment is 1.71. For the variant S294F, the enrichment was 2.27.

For the variant A59V, the enrichment is 2.52. As for L207G, the enrichment turned out to be 1.42. As to G68V, the enrichment came out at 7.34. Take N137R: the enrichment is 2.63. With V56L, the enrichment stood at 1.92. Regarding S73A, the enrichment turned out to be 4.51. Still for that read-out and setting: the value for A62K was 2.93. As to M133I, the enrichment was 2.1. For the variant R485K, the enrichment came to 6.26. Still for that read-out and setting: the value for L348A was 2.29; that for I171L was 1.51; that for R364A was 2.87.

Still in this assay, the particulars now being: with KDM1A (lysine-specific histone demethylase 1A; the table's label AOF2 is a gene synonym of KDM1A), O60341; yeast diploids after mating (RBait_S3 x RPrey_S3), 30 °C, selection for reporter genes on NB agar; human tyrosine kinase ABL2 co-expressed as the active kinase …; HIGHER = WEAKER BINDING (the opposite of display enrichments): higher = stronger loss of interaction: reverse Y2H selects yeast in which bait and prey do NOT interact (growth without adenine), so a …; hits-only table; scale: rY2H score; numbering: uniprot, sequence starts at 1.
Consider K304A, for which the enrichment amounted to 3.58. In the case of K304P, the enrichment turned out to be 1.4. Take F200S: the enrichment worked out at 3.89. Turning to E349P, the enrichment turned out to be 2.41. The same measure, in the same setting: the value for L355P was 1.79.

As to R328L, the enrichment is 2.21.

A140G: the enrichment is 1.91. Take E311K: the enrichment was 1.67 and 1.4. The same measure, in the same setting: in the case of T397I it was 4.78; in that of I127E, 11.8.

As to L301A, the enrichment was 2. For the variant T394A, the enrichment was found to be 1.4. On to K330L, for which the enrichment stood at 2.59. D198G: the enrichment was determined as 2.28. Turning to R363L, the enrichment came to 1.9. Consider M401K, for which the enrichment is 1.99 and 1.77. Regarding M401E, the enrichment is 1.62. Consider R335S, for which the enrichment was 1.9. On to R335L, for which the enrichment was found to be 3.71. As to D130A, the enrichment is 1.54. As for E321L, the enrichment was found to be 3.26. On the same count and under the same terms, in the case of K126E it was 22.9; in that of H221Y, 2.24; in that of A59V, 1.61. K356A: the enrichment is 2.

K356E: the enrichment came out at 1.91.

Consider I418A, for which the enrichment came out at 1.5. For D411A, the enrichment was 2.4 and 1.53. For Y398K, the enrichment stood at 2.43. Turning to N137R, the enrichment was 2.21. For the variant L57A, the enrichment was 3.5. For the variant Q64P, the enrichment worked out at 6.87. The same measure, in the same setting: in the case of Q64K it was 2.38. For M286A, the enrichment was found to be 1.89. V56L: the enrichment turned out to be 1.8. In the case of M446I, the enrichment was found to be 1.99. Consider M133E, for which the enrichment is 21.9.

In the case of P504R, the enrichment stood at 1.85.

In the case of R364A, the enrichment was 4.28 and 3.15. D162Y: the enrichment worked out at 2.15.
